Test results as given in patent US20230381333A1 (HANMI PHARM, published 2023).
Bridge positions count the residues as written; N and C are the ends. Square brackets hold non-standard residues; d marks the D form. Ends that are not written are not given here. Aib = CC(C)(N)C(=O)O

T1: human GIP receptor (human, UniProt P48546 22-466)
T1 sequence (looked up): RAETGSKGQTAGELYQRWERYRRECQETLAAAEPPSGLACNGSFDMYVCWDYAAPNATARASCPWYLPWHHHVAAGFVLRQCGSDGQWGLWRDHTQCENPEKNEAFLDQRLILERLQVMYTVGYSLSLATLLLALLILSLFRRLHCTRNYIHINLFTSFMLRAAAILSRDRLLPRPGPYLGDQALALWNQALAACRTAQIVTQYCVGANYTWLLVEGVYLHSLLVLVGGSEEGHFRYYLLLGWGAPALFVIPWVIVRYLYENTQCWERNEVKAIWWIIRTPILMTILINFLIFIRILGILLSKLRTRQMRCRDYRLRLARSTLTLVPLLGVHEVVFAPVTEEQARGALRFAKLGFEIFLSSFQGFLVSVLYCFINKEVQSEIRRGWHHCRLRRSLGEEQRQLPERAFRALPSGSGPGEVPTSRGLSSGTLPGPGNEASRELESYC


What was measured:
Experiment in all cases: cell-based or functional assay
human GLP-1 receptor = human GLP-1 receptor (human, UniProt P43220 24-463)
human GIP receptor = biological target: T1, human GIP receptor
human GCG receptor = human GCG receptor (human, UniProt P47871 26-477)
human GCG receptor, sequence (P47871 26-477): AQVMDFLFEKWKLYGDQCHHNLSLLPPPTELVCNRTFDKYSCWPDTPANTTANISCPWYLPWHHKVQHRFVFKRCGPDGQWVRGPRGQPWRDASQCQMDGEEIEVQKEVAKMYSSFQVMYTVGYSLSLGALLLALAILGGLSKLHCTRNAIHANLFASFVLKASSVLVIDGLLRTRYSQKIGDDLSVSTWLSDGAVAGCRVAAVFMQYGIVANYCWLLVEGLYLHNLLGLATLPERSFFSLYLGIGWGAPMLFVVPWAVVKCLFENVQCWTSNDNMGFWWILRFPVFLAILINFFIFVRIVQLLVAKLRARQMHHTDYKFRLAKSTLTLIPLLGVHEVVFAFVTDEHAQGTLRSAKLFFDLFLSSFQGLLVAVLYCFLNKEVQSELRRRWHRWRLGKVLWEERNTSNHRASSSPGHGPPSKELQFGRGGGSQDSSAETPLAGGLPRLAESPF

Binder	In vitro activity compared to native-type peptide (%), vs GLP-1 (human GLP-1 receptor)	In vitro activity compared to native-type peptide (%), vs GIP (human GIP receptor)	In vitro activity compared to native-type peptide (%), vs Glucagon (human GCG receptor)
H[Aib]QGTFTSDYSKYLDEKAAKEFVQWLLNTC (bridge 16-20) [triple agonist of SEQ ID NO: 29]	38.5%	< 0.1%	6%
H[Aib]QGTFTSDYSKYLDEKAQKEFVQWLLDTC (bridge 16-20) [triple agonist of SEQ ID NO: 30]	142%	0.8%	0.7%
H[Aib]QGTFTSDVSSYLLGQAAKQFIAWLVKGGGPSSGAPPPSC [triple agonist of SEQ ID NO: 3]	1.8%	< 0.1%	< 0.1%
H[Aib]QGTFTSDYSKYLDEKACKEFVQWLLAQ (bridge 16-20) [triple agonist of SEQ ID NO: 31]	135%	2.4%	2.2%
H[Aib]QGTFTSDYSKYLDERACQDFVQWLLDQGGPSSGAPPPS [triple agonist of SEQ ID NO: 27]	83.1%	0.9%	0.8%
Y[Aib]QGTFTSDYSKCLDEKRAKEFVQWLLDHHPSSGQPPPS (bridge 16-20) [triple agonist of SEQ ID NO: 22]	20.1%	59.7%	140%
Y[Aib]QGTFTSDYSKYLDECRAKEFVQWLLAQKGKKNDWKHNIT (bridge 16-20) [triple agonist of SEQ ID NO: 23]	4.01%	< 0.1%	9.3%
H[Aib]QGTFTSDCSKYLDERAAQDFVQWLLDGGPSSGAPPPS [triple agonist of SEQ ID NO: 25]	82.6%	< 0.1%	0.1%
H[Aib]QGTFTSDYSKYLDEKACKDFVQWLLDGGPSSGAPPPS (bridge 16-20) [triple agonist of SEQ ID NO: 32]	151%	8.8%	1.7%
Y[Aib]QGTFTSDYSKYLDECRAKEFVQWLKNGGPSSGAPPPS (bridge 16-20) [triple agonist of SEQ ID NO: 24]	41.2%	< 0.1%	9.3%
H[Aib]QGTFTSDYSIAMDEIHQKDFVNWLLAQKC (bridge 16-20) [triple agonist of SEQ ID NO: 33]	24.5%	10.4%	< 0.1%
H[Aib]QGTFTSDCSKYLDSRAAQDFVQWLLDGGPSSGAPPPS [triple agonist of SEQ ID NO: 26]	64.5%	< 0.1%	0.2%
H[Aib]QGTFTSDYSKYLDEKRAQEFVCWLLAQKGKKNDWKHNIT [triple agonist of SEQ ID NO: 28]	17.2%	< 0.1%	1.6%
